Source: US20230265187A1

Assays:
[1] = biological target: human TIGIT on Jurkat cells (TIGIT/NFAT reporter Jurkat cells, BPS Bioscience #60538; Promega TIGIT Effector Cells) (human) (UniProt Q495A1); assay: cell-based or functional assay
[2] = biological target: human TIGIT on Jurkat cells (TIGIT/NFAT reporter Jurkat cells, BPS Bioscience #60538; Promega TIGIT Effector Cells) (human) (UniProt Q495A1); assay: flow cytometry, TIGIT/NFAT Jurkat cells, 10 ug/ml

Sequence of human TIGIT on Jurkat cells (TIGIT/NFAT reporter Jurkat cells, BPS Bioscience #60538; Promega TIGIT Effector Cells) (human) (Q495A1 22-244): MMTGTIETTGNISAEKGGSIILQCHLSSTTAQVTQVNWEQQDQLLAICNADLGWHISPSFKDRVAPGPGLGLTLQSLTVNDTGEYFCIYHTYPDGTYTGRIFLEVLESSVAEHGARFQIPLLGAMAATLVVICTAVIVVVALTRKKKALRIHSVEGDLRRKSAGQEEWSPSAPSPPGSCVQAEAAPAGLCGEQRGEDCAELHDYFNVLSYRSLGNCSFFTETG

B1: 43586p1.2.F6 (scFv, V domains shown)
VH: EVQLLESGEGLVQPGGSLRLSCAASGFTFTSYLMSWVRQAPGKGLEWVSTITWDGDRTYYADSVKGRFTISRDNSKNTLYLQMNSLRVGDTAVYYCAKHWTVFQYGMDVWGQGTTVTVSS
VL: QSVLTQPASASGTPGQRVTISCSGTISNIETKYVSWYQQLPGTAPKLLIYGNHQRPSGVPDRFSGSKSGTSASLAISGLQSEDEADYYCASWENDLKSWVFGGGTKLTVL
Question: How did the max. signal (% of 22G2) [1] turn out when B1 was run?
Answer: 116 % of 22G2

Question: And the MFI [2]?
Answer: 10700 MFI
